The text below walks through data of PMC7010799.

The target of experiment [1] is human NatA complex (hNAA15/hNAA10) (human) (UniProt Q9BXJ9). Put plainly: ITC; MicroCal iTC200, 20 °C; 25 mM HEPES pH 7.0, 200 mM NaCl, 1 mM DTT; 15 μM hNatA or hNatE in the cell, 150 μM MBP-HYPK in the syringe. On the technique in general: ITC needs no label: the signal is the heat of the interaction.
The target is the same in experiment [2].

human NatA complex (hNAA15/hNAA10) (human), sequence (Q9BXJ9 whole entry, chain 1 of 2): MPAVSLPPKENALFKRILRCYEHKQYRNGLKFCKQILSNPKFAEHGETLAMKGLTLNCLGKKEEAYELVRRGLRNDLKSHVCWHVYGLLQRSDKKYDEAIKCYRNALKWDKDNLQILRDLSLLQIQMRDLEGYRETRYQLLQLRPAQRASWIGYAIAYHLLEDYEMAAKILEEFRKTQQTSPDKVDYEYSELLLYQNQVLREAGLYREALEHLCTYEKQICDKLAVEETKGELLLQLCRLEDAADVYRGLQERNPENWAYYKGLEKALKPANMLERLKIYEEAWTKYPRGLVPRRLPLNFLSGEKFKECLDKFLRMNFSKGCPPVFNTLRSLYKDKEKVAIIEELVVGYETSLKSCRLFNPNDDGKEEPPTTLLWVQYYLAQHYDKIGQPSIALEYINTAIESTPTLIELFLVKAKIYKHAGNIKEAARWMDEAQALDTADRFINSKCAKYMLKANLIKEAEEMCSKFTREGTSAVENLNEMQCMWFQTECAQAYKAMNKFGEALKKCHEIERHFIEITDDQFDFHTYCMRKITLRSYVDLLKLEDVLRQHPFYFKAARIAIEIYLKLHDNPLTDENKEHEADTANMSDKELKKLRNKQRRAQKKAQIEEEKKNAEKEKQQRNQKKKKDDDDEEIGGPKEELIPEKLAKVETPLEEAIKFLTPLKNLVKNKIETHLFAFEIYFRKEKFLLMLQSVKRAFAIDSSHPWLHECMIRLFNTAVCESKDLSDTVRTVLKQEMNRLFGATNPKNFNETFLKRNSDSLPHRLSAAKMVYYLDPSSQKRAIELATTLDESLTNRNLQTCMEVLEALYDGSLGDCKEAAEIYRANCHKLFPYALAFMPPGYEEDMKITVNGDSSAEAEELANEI
human NatA complex (hNAA15/hNAA10) (human), sequence (P41227 whole entry, chain 2 of 2, further chain): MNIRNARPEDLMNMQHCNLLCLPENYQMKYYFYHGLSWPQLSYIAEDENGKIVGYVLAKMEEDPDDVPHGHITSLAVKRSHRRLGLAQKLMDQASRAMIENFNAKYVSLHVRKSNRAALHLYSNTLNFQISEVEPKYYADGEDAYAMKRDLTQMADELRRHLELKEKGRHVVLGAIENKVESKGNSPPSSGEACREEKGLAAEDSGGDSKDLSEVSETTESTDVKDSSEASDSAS
maltose-binding protein (MBP) tagged HYPK (from UniProt Q9NX55 1-121) (natural protein), sequence (Q9NX55 whole entry): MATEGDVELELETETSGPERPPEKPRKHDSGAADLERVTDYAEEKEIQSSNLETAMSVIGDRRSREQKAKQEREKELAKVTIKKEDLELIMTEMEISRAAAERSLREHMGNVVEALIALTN
maltose-binding protein (MBP) tagged HYPK (from UniProt Q9NX55 1-121) (natural protein; other documents disagree on this pair), sequence (Q9NX55 whole entry): as above

Substance “maltose-binding protein (MBP) tagged HYPK (from UniProt Q9NX55 1-121) (natural protein; other documents disagree on this pair)” yielded a dissociation constant Kd in experiment [1] of 29.9 nM. “maltose-binding protein (MBP) tagged HYPK (from UniProt Q9NX55 1-121) (natural protein)” returned an inhibition of hNatA (100 nM) acetylation activity against SASE peptide, MBP-HYPK titrated in experiment [2] of 90%.

Broadly, the Kd is the constant that tells how readily two partners part at equilibrium. A higher Kd goes with weaker binding.
